Assay: soluble on expression in E. coli; label from the status in PepcDB or PDB records

Sequence | soluble on expression in E. coli
MGHHHHHHSHPRPEQHKSYKIRFNSISCSDPLVSSWRRKRKESSNTDSAGALGTLRFCVFGLGSRAYPHFCAFARAVDTRLEELGGERLLQLGQGDELCGQEEAFRGWAQAAFQAACETFCVGEDAKAAARDIFSPKRSWKRQRYRLSAQAEGLQLLPGLIHVHRRKMFQATIRSVENLQSSKSTRATILVRLDTGGQEGLQYQPGDHIGVCPPNRPGLV | not soluble
MAQMYFYYSAMNAGKSTTLLQSSFNYQERGMTPVIFTAALDDRYGVGKVSSRIGLQSDAHLFRPDTNLYQEIAALHEVEKRHCIL | not soluble
RKPSFLALPGHLVKSEETVILQCWSDVMFEHFLLHREGKFNNTLHLIGEHHDGVSKANFSIGPMMPVLAGTYRCYGSVPHSPYQLSAPSDPLDMVIIGLYEKPSLSAQPGPTVQAGENVTLSCSSRSSYDMYHLSREGEAHERRLPAVRSINGTFQADFPLGPATHGGTYRCFGSFRDAPYEWSNSSDPLLVSVT | soluble
MPKLPRIDFYFDVISPYSYIAFEVFQKLETQWKGVTIRYIPFFLGAVMKESGNRPPAMLPARSIMMMTDLKRTAKFWDIPLTPPPLFMEWIKKYRTTGAMKVLLVLQEQDKELMLRAAREMWVRLWSRSEKIFEDQDFVEVLKAVGVKNPEQIVEKSKDEKYIKILMENTNKGVDLMAYGAPWINVHTEDGSEHSFFGSDRFHLIADLLQQPQPLPDRLFGQKSKL | not soluble
MGSHHHHHHDITSLYKKAGSENLYFQGMKFSEECRSAAAEWWEGSFVHPFVQGIGDGTLPIDRFKYYVLQDSYYLTHFAKVQSFGAAYAKDLYTTGRMASHAQGTYEAEMALHREFAELLEISEEERKAFKPSPTAYSFTSHMYRSVLSGNFAEILAALLPCYWLYYEVGEKLLHCDPGHPIYQKWIGTYGGDWFRQQVEEQINRFDELAENSTEEVRAKMKENFVISSYYEYQFWGMAYRKEGWSDSAIKEVEECGASRHNG | soluble
MDNRNHSANVLIHLHMPKTGGTTLKKIIKRNYDSRKSVDVYEEHHKLPGIFKGLSKQNIECVQGHLPFGVHEYFNRPTTYITMLRDPVDRVISEYYFIRNIEWHNLHESVMKMSLEEYQGLPKNRNLQTRYILGGQLTSVTEVNRAKNILKNHFAVVGLTEKFDASLFLMKEMFNWKQVAYQKYNVTKKRRSKEEISPKLLEKIAKNNEADLELYAFAKELLAKRIRALDPLSAYRLKRFERKHQQGFHGKRDRMAGDPLEHHHHHH | soluble
MAKKVLIISSSPRKGGNSDMLCDEFMKGVLETGNEVEKIFLKEKVIHPCTGCSVCSMYGKPCPQKDDAAGIVEKMIAADVIVMATPVYFYTMCGQMKIMIDRCCARYTEITNKEFYFIIAAAENDKGMMERTIDGFRGFLDCLENPQEKGVIYGIGAWKVGEIKDTPYMQEAYEMGKMV | not soluble
MAERAALEELVKLQGERVRGLKQQKASAELIEEEVAKLLKLKAQLGPDESKQKFVLKTPKGTRDYSPRQMAVREKVFDVIIRCFKRHGAEVIDTPVFELKETLMGKYGEDSKLIYDLKDQGGELLSLRYDLTVPFARYLAMNKLTNIKRYHIAKVYRRDNPAMTRGRYREFYQCDFDIAGNFDPMIPDAECLKIMCEILSSLQIGDFLVKVNDRRILDGMFAICGVSDSKFRTICSSVDKLDKVSWEEVKNEMVGEKGLAPEVADRIGDYVQQHGGVSLVEQLLQDPKLSQNKQALEGLGDLKLLFEYLTLFGIDDKISFDLSLARGLDYYTGVIYEAVLLQTPAQAGEEPLGVGSVAAGGRYDGLVGMFDPKGRKVPCVGLSIGVERIFSIVEQRLEALEEKIRTTETQVLVASAQKKLLEERLKLVSELWDAGIKAELLYKKNPKLLNQLQYCEEAGIPLVAIIGEQELKDGVIKLRSVTSREEVDVRREDLVEEIKRRTGQPLCIC | soluble
MGSDKIHHHHHHMIDKLEFFIALARAQHFGRAAEECGISQPTLSAAIRQLEDQLGVILVQRGSRFQGLTPEGQRVLEWARRIVGDARTMREEMRAARNGLAGHIRLAVIPTALAMVQRLTEPFQAHHPAVTFQVVSRNSLQVLSLLENLEIDAGITYLDNEPLGRVTSVPLYAERYHLIAATGTPLADRESVTWREVSDLRLCLLTADMQNRRIINQHFTEAGVVPRPTLESNSMIVLFSHIRTGQWSSIMPRNVAESFGFPEEIRMVPIVEPQAQHLVGLVATHREPYTPLVSALLHEARRLAAAQVFDRFFLSRNNTAVLT | not soluble
SLNEGQEMEEQFALLLETLKNQQMNEFRELFLALHIYEQGQFYQSLDEKDRQHLYNYLSPKELADMFDVIEEDNENMKDYLAEMRPSYAADMLAEMYTDNAVDLLNMLDKSQKAKYLSLLSSEEAGEIKELLHYEDETAGAIMTTEFVSIVANQTVRSAMYVLKNQADMAETIYYVYVVDQENHLVGVISLRDLIVNDDDTLIADILNERVISVHVGDDQEDVAQTIRDYDFLAVPVTDYDDHLLGIVTVDDIIDVIDDEAASDYSGLAGVDVEEVSENPLKAASK | soluble
MAHHHHHHMAISATGTLAVLKVYQLTDAAARLSRAEVDAALEELMGLRVNDSLVQYLSYCYVPPHRVVLVMQYVPGGTLREMKSRYGRKLPLTAVRRNVASMLRGLAHLHGRGVIHGRLCPENVMVGVEGRWRLKGMLLGAAPLIMHQETYYVSPEVAAGGAKTAANDVYALGLLLLAMLTDSHPWQWSANAALDRSRKELDSLLADSTAFREALRNGLLTPVPTPADTDETLRTVLEACLRTAPGDRPTALRLQELRCDRTS | not soluble
MSLSIRYIVKTDVSETFEIIKAGQVGSNIVFSEIRTFDFGELATLACEKFYFRSSNRAALFVNINNFHGETEVTIISTGSSNGFFTGIDWGAAFDYMHSVVADLKRVAIREVKMEKQEEGHHHHHH | soluble
MSLIKQEHMHPPPRAITPLPPATHQITLEEYKEREKKDYYRDATKDASVKKVVLSLLKDHPGMWQNGNRFQPEKWRALGVDVYQRTGQIVRVNDMRKMLVMGKSVLKKKIAICIRDKKLDRAATEKDLWYWEYYRHFLYYRETLGQFEANLRGEEWTGEDQIQDEDDIIYDGMLDGDLSNSSHNFAGHGADDDYQVEEVQYSEAGFRRPESVRGGDSYFGHGPPPQMVMGSSASNFSSATQSHSRNRKSSSIDHTEVDRSAQHIAEQAKRLFLQYPEKSNLIRETMFKTILAFDDPSADYQNVGEIFDDLAAQEAAKKRKRAENRAQREQQ | not soluble
SEKAVHSSTTSGPAVPGETTKTGTSIIDTAASAVQSFAPVNQIHQHLCAFHFYADDMARQVEAHHFCSHVNEEMRQCLIYDGPDANARLIGLEYIVSEKLFMTLPDEEKKLWHSHEWEVKGGFLFMPGVPGAIQRKDLDKVAKTYGKVFHFWQVDLGHELPIGLPNVMMAVTRDGQLFHEMIQEAEKRFGVSVEGERDSRAYMSGPELGIHPLANGGGKGMKLELREVDIKPVESVGSVFV | soluble
MGSDKIHHHHHHMGYVAVRGGSEAISRAEELVTCLRLLGGSTPLQLPQIRDQLRHAVSRAMHEGALYAPLLAALALKQAEGDSIEAAFLLRAYRTTLPRVMASLPASGRDISCLRRISASFKDIPGGQILGPASDYLIRLLQPDLAHETIVDVARAAEQYAALVEKGGIRSGEWGRFPKVADYMRQEQMIVDIPADSEETEPFDITREPLVFPCPRSARLQALMQADTGSLMCLAYSSVRGYGDAHPALVELRYGYLAIQVAHPLTGEPITIGEIEVTETEVASKAHSVTSRTGTPRFNVGYGFAFGQSELKTMSMAILDSVLTQARAGSLAGESGPAADEEFVLLHTDGIEASGFVAHFKLPHYVTFAADLSVLDRARDHHAQQQSRLHQLVDQALTE | not soluble
MGSDKIHHHHHHTEYPLPAAQSRLIGENQYYTVPEGKHTLEDIAAKYQLGLSNLLEANPGVDPFLPKPGSQLLIPLQLILPNAPREGIVINVAEMRLYYYPKGKKTVEVLPIGIGQIGKDTPENWVTSVQRKRANPTWTPTPRIRKEYAAKGEILPAVWPAGPDNPMGLYALYIGNLYAIHGTNASFGIGLRVSQGCVRLRHEDIEHLFKNVPVGTRVQFVNQPIKATEEPDGKRYLAVHQPLSRTVAEFESNEPVAISLPRDIAKFIAKADTNSSVIKKLLDERTGVPMRINQ | not soluble
MAHDWEKVLLSPDTPAESALRVLDDSGLRLVLVVDEQRRLLGTLTDGDVRRALLRHVNFMTAAVADIMHREPRVALASASREQLRHLMEQHSLLHIPLLDHDDRVVGLETYQEVLQRPRRDNWVFLMAGGFGKRLRPLTDNCPKPMLLVGGKPMLQTILEGFIAAGFHRFYISVHYLPETIKNYFGDGSKWGVTIVYIEEDQPLGTGGALGLLPGTDDLPIIMMNGDILTRLDFNALLDFHEKHAADLTLCVREYDVQIPFGVVEGNDVTVTSIVEKPKHRFFVNAGIYVVTPQAIARVLPSMRVDMPDLIKQIIADQRNVSMFPIREYWLDIGRPEDFDVAQTSIAQLEHHHHHH | not soluble
PGAPRRLIDAALAAGAQGLVIEAMGSGNVGTDIGVALGEALDAGIPVVISTRVPRGEVFGAYGGAGGGKTLASKGAVNSTYFRSGQARVLLAIAIASGVHPATLL | not soluble
SLSVVAPAVYVGTWHKYNCGSIAGRWFDLTTFDDERDFFAACRALHQDEADPELMFQDYEGFPGNMASECHINWAWVEGFRQARDEGCEEAYRLWVEDTGETDFDTFRDAWWGEADSEEAFAVEFASDTGLLADVPETVALYFDYEAYARDLFLDSFTFIDGHVFRR | soluble
MKIEAISTTIVDVPTRRPLQMSFTTVHKQSYVIVQVKAGGLVGIGEGGSVGGPTWGSESAETIKVIIDNYLAPLLVGKDASNLSQARVLMDRAVTGNLSAKAAIDIALHDLKARALNLSIADLIGGTMRTSIPIAWTLASGDTARDIDSALEMIETRRHNRFKVKLGARTPAQDLEHIRSIVKAVGDRASVRVDVNQGWDEQTASIWIPRLEEAGVELVEQPVPRANFGALRRLTEQNGVAILADESLSSLSSAFELARDHAVDAFSLKLCNMGGIANTLKVAAVAEAAGISSYGGTMLDSTVGTAAALHVYATLPSLPYGCELIGPWVLGDRLTQQDLEIKDFEVHLPLGSGLGVDLDHDKVRHYTRAA | soluble
MSLEKKTANDVVTLARAQDRLTTLEYIEAIFEDFLEFHGDRYFADDLAVVGGVATLQGKPVTVVGIQKGRNLPENIERNFGSPNPEGYRKALRLMKQAEKFNRPVITFVNTAGAYCGIGAEERGEGEAIAQNLLEMSDLKVPIISVIIGEGGSGGALALAVADEVWMLEHTIYAVLSPEGFASILWKDGSRAKEAAELMKITATELKELAIVDKVIPEVMNGQPLEQAKINRMLQKAFISKLTELAKLDTETLLEKRYQRFRKYEGHHHHHH | soluble
MGSDKIHHHHHHMSRPADKPQPFYFAYGSNMNPAQIEARCRKPEVVATARLPDHRLGFFGSSKIWDGGEESAQPEPGADLWGVVYRLSFHDAEILDTWQKVWLDGTGPYFHFPTQVFDAEGRNYPVLLYKRDVLGPRQKPSAPYLDHIIAGAMARALPPPYIDLLRAIPTCQASTPVPRKASFNPEFFAGLACQCGD | not soluble
MNYSPKQGVRSHGLPHDPFKSSTVPRPIGWISTVSKDGKDNLAPYSQYQNLTWDPPMVMFAANQSVLGDHERKDTVKNAEETGWFVWNMATYDLREAVNLSSKALPPEEDEFEYAGVTKEACIEAPGYRVKESPVHFECEYVQTIRIPTGDPVSTVDIVIGRVAQVHIDDKVILDNGKLDIKSIKPIARLGYYDYTVVNEIFEMKAPAASKEELAGLEGRNFDNQSDEKR | not soluble
MRALPICLVALMLSGCSMLSRSPVEPVQSTAPQPKAEPAKPKAPRATPVRIYTNAEELVGKPFRDLGEVSGDSCQASNQDSPPSIPTARKRMQINASKMKANAVLLHSCEVTSGTPGCYRQAVCIGSALNITAKLEHHHHHH | not soluble

Reference: the DeepSol protein solubility set
